Assay results published in patent US20110038869A1 (Genmab, published 2011).
Numbering of substitutions follows the chain as printed. Values belong to the binder of their own block, whether it stands above or below them.

Key:
[1] = biological target: T1, full length CD32b2 on transfected IIA1.6 cells (human, UniProt P31994-2 43-291); assay: flow cytometry on IIA1.6-CD32b2 cells
T1 construct: whole, on cells; also called IIA1.6-CD32b2
T1 sequence (looked up): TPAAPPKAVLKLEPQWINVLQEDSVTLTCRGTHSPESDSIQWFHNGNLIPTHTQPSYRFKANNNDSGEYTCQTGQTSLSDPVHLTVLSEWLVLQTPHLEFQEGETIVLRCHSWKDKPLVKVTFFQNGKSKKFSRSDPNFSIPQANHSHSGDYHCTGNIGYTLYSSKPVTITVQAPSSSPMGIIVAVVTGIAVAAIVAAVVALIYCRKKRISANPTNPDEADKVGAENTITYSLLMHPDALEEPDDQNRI
Experimental: (§1) After harvesting and counting, IIA1.6 cells stably transfected with full length CD32a and CD32b (van den Herik-Oudijk et al., 1994), control IIA1.6 cells and Daudi-luc cells were resuspended in PBS (1×10⁶ cells/ml). Cells were put in 96-well V-bottom plates (100 μl/well) and washed twice with FACS buffer (PBS supplemented with 0.1% BSA and 0.02% Na-azide). Thereafter, 50 μl of serially diluted HuMab in FACS buffer was added to the cells and incubated for 30 minutes at 4° C. After washing three times with FACS buffer, 50 μl of phycoerythrin (PE)-conjugated rabbit anti-human IgG (Jackson ImmunoResearch Europe), diluted 1:200 in FACS buffer, was added. After 30 minutes at 4° C. (in the dark), cells were washed three times, and specific binding of the HuMabs was detected by flow cytometry on a FACSCalibur (BD Biosciences). […] Binding curves were analyzed using non-linear regression (sigmoidal dose-response with variable slope) using GraphPad Prism V4.03 software (GraphPad Software, San Diego, Calif., USA).
To analyze binding of anti-CD32b HuMabs to CD32b1 and CD32b2, IIA1.6 cells transfected with full length CD32b1 or CD32b2 (van den Herik-Oudijk et al., 1994) were prepared as described supra. The assay was performed as described supra. Flow cytometry was performed on a FACS Canto II (BD Biosciences).

biotinylated CD32bECDHis [2] = biological target: T2, biotinylated CD32bECDHis (human, UniProt P31994 43-223, limits assumed, biotinylated (sites not given)); assay: competition ELISA, competitor 016
T2 sequence (looked up): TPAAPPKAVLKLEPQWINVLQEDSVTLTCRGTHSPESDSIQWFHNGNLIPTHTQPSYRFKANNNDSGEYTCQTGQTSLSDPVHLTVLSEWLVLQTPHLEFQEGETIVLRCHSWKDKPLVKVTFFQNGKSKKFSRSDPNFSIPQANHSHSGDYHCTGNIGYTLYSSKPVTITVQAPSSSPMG
Experimental: (§2) ELISA wells were coated overnight at 4° C. with anti-CD32b HuMabs serially diluted in PBS. The ELISA wells were washed with PBS, blocked for one hour at room temperature with 2% (v/v) chicken serum (Gibco, Paisley, Scotland) in PBS and washed again with PBS. Subsequently, the immobilized antibodies were incubated with biotinylated CD32bECDHis serially diluted in PBSTC. After washing with PBS/Tween, bound biotinylated CD32bECDHis was incubated with Streptavidin-poly-HRP (Sanquin, Amsterdam, The Netherlands) for 1 hr at RT an the reaction was developed as described supra.
(§3) To this end, ELISA wells coated with anti-CD32b HuMabs were incubated in the presence of an excess of CD32b-specific antibody and the predetermined concentration of biotinylated CD32bECDHis in fluid phase. The reaction was developed as described.

biotinylated CD32bECDHis [3] = biological target: T2, biotinylated CD32bECDHis; assay: competition ELISA, competitor 020
Experimental: as §2, §3

biotinylated CD32bECDHis [4] = biological target: T2, biotinylated CD32bECDHis; assay: competition ELISA, competitor 022
Experimental: as §2, §3

biotinylated CD32bECDHis [5] = biological target: T2, biotinylated CD32bECDHis; assay: competition ELISA, competitor 024
Experimental: as §2, §3

biotinylated CD32bECDHis [6] = biological target: T2, biotinylated CD32bECDHis; assay: competition ELISA, competitor 026
Experimental: as §2, §3

biotinylated CD32bECDHis [7] = biological target: T2, biotinylated CD32bECDHis; assay: competition ELISA, competitor 028
Experimental: as §2, §3

biotinylated CD32bECDHis [8] = biological target: T2, biotinylated CD32bECDHis; assay: competition ELISA, competitor 034
Experimental: as §2, §3

biotinylated CD32bECDHis [9] = biological target: T2, biotinylated CD32bECDHis; assay: competition ELISA, competitor 038
Experimental: as §2, §3

biotinylated CD32bECDHis [10] = biological target: T2, biotinylated CD32bECDHis; assay: competition ELISA, competitor 053
Experimental: as §2, §3

biotinylated CD32bECDHis [11] = biological target: T2, biotinylated CD32bECDHis; assay: competition ELISA, competitor 063
Experimental: as §2, §3

biotinylated CD32bECDHis [12] = biological target: T2, biotinylated CD32bECDHis; assay: competition ELISA, competitor 2B6
Experimental: as §2, §3

CD32bECDHis [13] = biological target: T3, CD32bECDHis (human, UniProt P31994 43-223, limits assumed); assay: ELISA on coated CD32bECDHis
T3 construct: Produced in HEK-293F cells; also called extracellular domain of CD32b with C-terminal His tag; soluble CD32b
T3 sequence (looked up): T2 sequence (looked up)
Experimental: The specificity of the obtained anti-CD32b HuMabs was evaluated by ELISA. ELISA plates (Microlon; Greiner Bio-One) were coated overnight at 4° C. with 2 μg/ml of CD32aECDHis and CD32bECDHis in PBS, pH 7.4. Coated ELISA plates were washed with PBS, blocked for one hour at room temperature with 2% (v/v) chicken serum (Gibco, Paisley, Scotland) in PBS and washed again with PBS. Subsequently, HuMabs, serially diluted in PBSTC (PBS supplemented with 2% (v/v) chicken serum and 0.05% (v/v) Tween-20), were incubated for 1 hr at RT under shaking conditions (300 rpm). Bound HuMabs were detected using HRP-conjugated goat-anti-human IgG antibodies (Jackson ImmunoResearch Europe) diluted 1:10,000 in PBSTC, which were incubated for 1 hr at RT under shaking conditions (300 rpm). […] Binding curves were analyzed using non-linear regression (sigmoidal dose-response with variable slope) using GraphPad Prism V4.03 software.

[14] = biological target: T4, full length CD32a on stably transfected IIA1.6 cells (human, UniProt P12318 34-317); assay: flow cytometry on IIA1.6-CD32a cells
T4 construct: whole, on cells; also called IIA1.6-CD32a; CD32a-expressing IIA1.6 cells
T4 sequence (looked up): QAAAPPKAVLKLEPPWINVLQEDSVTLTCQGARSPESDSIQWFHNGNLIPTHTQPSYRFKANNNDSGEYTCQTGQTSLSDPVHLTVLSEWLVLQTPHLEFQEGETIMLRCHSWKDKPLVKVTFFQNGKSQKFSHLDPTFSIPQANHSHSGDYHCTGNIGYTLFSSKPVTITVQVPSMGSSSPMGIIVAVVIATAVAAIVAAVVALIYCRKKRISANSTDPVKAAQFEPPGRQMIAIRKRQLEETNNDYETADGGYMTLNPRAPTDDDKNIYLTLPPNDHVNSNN
Experimental: as §1

CD32bECDHis [15] = biological target: T3, CD32bECDHis; assay: TR-FRET competition against HuMab-KLH-AlexaFluor 647
From the text: To study the interaction of anti-CD32b HuMabs with CD32b and CD32a in more detail TR-FRET technology was applied. To this end, CD32bECDHis and CD32aECDHis were labeled with a fluorescent donor molecule directed against the histidine tag (Anti-6×His Europium3+, PerkinElmer, Boston Mass.).
Briefly, all dilutions were made in 0.5× Lance detection buffer (PerkinElmer, Boston Mass.) supplemented with 0.2% BSA (obtained via dilution of 7.5% BSA Stabilizer solution, cat: CR84-100, PerkinElmer) and 0.03% (v/v) Tween-20 (Riedel de Haen, Seelze, Germany). CD32bECDHis and CD32aECDHis were diluted to 0.5 μg/ml. […] Anti-6×His Europium3+ (PerkinElmer, Boston Mass.) was diluted to 0.15 μg/ml. A 4-fold serial dilution of the tested HuMab antibody was made in a 96 wells non-binding plate (cat. 650261, Greiner Bio-one, Frickenhausen, Germany), ranging from 10 μg/ml-0.04 ng/ml. […] After overnight incubation at 4° C. in the dark, fluorescence was measured using an EnVision 2101 Multilabel reader (PerkinElmer, Boston, Mass.) applying the following settings; Lance/Delfia dual mirror, emission filter 615-665 nm, excitation filter 320 nm, delay time 60 μs, window 100 μs, 100 flashes, 2000 μs per cycle and bidirectional row-by-row reading. Binding curves were analyzed using non-linear regression (sigmoidal dose-response with variable slope) using GraphPad Prism V4.03 software (GraphPad Software, San Diego, Calif., USA).

CD32bECDHis [16] = biological target: T3, CD32bECDHis; assay: SPR BIAcore 3000, antibody immobilized, CD32bECDHis analyte
Experimental: Antibody binding to CD32a and CD32b was analyzed by surface plasmon resonance in a BIAcore 3000 (GE Healthcare). CD32aECDHis and CD32bECDHis derived from HEK293 cells were used for the analysis. HuMab antibodies were immobilized on the CM-5 sensor chip according to the procedure recommended by the manufacturer. Briefly, after surface activation by EDC and NHS HuMab antibody was injected over the activated CM-5 surface in 10 mM sodium-acetate, pH ranging from 4.0 to 5.5 at 5 μl/min. followed by 1 M Ethanolamine for deactivation. Concentration series of CD32bECDHis in HBS-EP buffer were injected over the immobilized antibodies at a flow rate of 30 μl/min for 180 sec. Regeneration of the HuMab surface was performed by injection of 10 mM Glycine-HCl pH 2.0 or 10 mM sodium acetate pH 3.0. […] Kinetic analysis is performed using double reference subtraction and model 1:1 (langmuir) binding analysis. Specificity was studied by injecting CD32aECDHis at a concentration of […] over immobilized HuMab and isotype control antibodies under the same conditions as for the CD32b measurements.

EC50 [1]: 1.06 nM
% residual binding (biotinylated CD32bECDHis [2]): 98%
% residual binding (biotinylated CD32bECDHis [3]): 19%
% residual binding (biotinylated CD32bECDHis [4]): 8%
% residual binding (biotinylated CD32bECDHis [5]): 6%
% residual binding (biotinylated CD32bECDHis [6]): 26%
% residual binding (biotinylated CD32bECDHis [7]): 13%
% residual binding (biotinylated CD32bECDHis [8]): 4%
% residual binding (biotinylated CD32bECDHis [9]): 168%
% residual binding (biotinylated CD32bECDHis [10]): 40%
% residual binding (biotinylated CD32bECDHis [11]): 43%
% residual binding (biotinylated CD32bECDHis [12]): 195%
B1: Antibody 053 (antibody, human IgG1, V domains shown)
VH: QVQLVESGGGVVQPGRSLRLSCAVSGFTFRSYGMHWVRQAPGKGLEWVAVIWYDGSIKYYADSVKGRFTISRDNSKNTLYLQMNSLRAEDTAVYFCAREGGRDAFDIWGQGTMVTVSS
VL: AVQLTQSPSSLSASVGDRVTITCRASQGISSALAWYQQKPGKAPKLLIYDASSLESGVPSRFSGSGSGTDFTLTISSLQPEDFATYCCQQFNSYPHTFGGGTKVEIKR
notes: Human antibody; also called HuMab 053

EC50 (CD32bECDHis [13]): 0.28 nM
EC50 [14]: 0.25 nM
EC50 [1]: 0.11 nM
IC50 (CD32bECDHis [15]): 0.24 nM
Kd (CD32bECDHis [16]): 1.1 nM
koff (CD32bECDHis [16]): 0.0028 s⁻¹
kon (CD32bECDHis [16]): 2.66e+06 M⁻¹ s⁻¹
B2: Antibody 016 (antibody, human IgG1, V domains shown)
VH: QVQLVESGGGVVQPGRSLRLSCAASGFTFSSYGIHWVRQAPGKGLEWVAVIGYDGSDKNYADSVKGRFTIFRDNSKNTLYLQMNSLRAEDTAVYYCARDQLGDAFDIWGQGTMVTVSS
VL: EIVLTQSPATLSLSPGERATLSCKASQSVSSSLAWYQQKPGQAPRLLIYDASNRATGIPARFSGSGSGTDFTLTISSLEPEDFAVYYCQQRSNWPPYTFGQGTKLEIKR
notes: Human antibody; also called HuMab 016

% residual binding (biotinylated CD32bECDHis [2]): 103%
% residual binding (biotinylated CD32bECDHis [3]): 59%
% residual binding (biotinylated CD32bECDHis [4]): 29%
% residual binding (biotinylated CD32bECDHis [5]): 23%
% residual binding (biotinylated CD32bECDHis [6]): 70%
% residual binding (biotinylated CD32bECDHis [7]): 49%
% residual binding (biotinylated CD32bECDHis [8]): 8%
% residual binding (biotinylated CD32bECDHis [9]): 102%
% residual binding (biotinylated CD32bECDHis [10]): 79%
% residual binding (biotinylated CD32bECDHis [11]): 0%
% residual binding (biotinylated CD32bECDHis [12]): 98%
% of maximal Fab-mediated inhibition (CD32bECDHis [15]): ~70%
B3: Antibody 063 (antibody, human IgG1, V domains shown)
VH: EVQLLESGGGLVQPGGSLRLSCAASGFTFSSYAMSWVRQAPGKGLEWVSAISDSGGSTYYADSVKGRFTISRDNSKNTLYLQMNSLRAEDTAAYYCAKEIAVALFDYWGQGTLVTVSS
VL: B2 VL with K24R, S32Y, N93S
notes: Human antibody; also called HuMab 063
